Measured values: article PMC10294844, “Functional Diversity of Homologous Oxidoreductases—Tuning of Substrate Specificity by a FAD-Stacking Residue for Iron Acquisition and Flavodoxin Reduction” (Antioxidants, 2023)

Target: the molecule itself
Experiment: crystal structure

B1: Bacillus cereus heme-degrading monooxygenase IsdG (enzyme)
chain: MIIVTNTAKITKGNGHKLIERFNKVGKVETMPGFLGLEVLLTQNTVDYDEVTISTRWNAKEDFQGWTKSAAFKDAHSHQGGMPEYILDNKIAYYDVKVVRMPMAAAQ
notes: also called Bc IsdG; IsdGapo
B1: binds.
